Here are results for 83 variants from the RNAGym collection of RNA variant scans (doi:10.1093/molbev/msab373).

B1: Azoarcus group I ribozyme (parent)
chain: GUGCCUUGCGCCGGGAAACCACGCAAGGGAUGGUGUCAAAUUCGGCGAAACCUAAGCGCCCGCCCGGGCGUAUGGCAACGCCGAGCCAAGCUUCGGCGCCUGCGCCGAUGAAGGUGUAGAGACUAGACGGCACCCACCUAAGGCAAACGCUAUGGUGAAGGCAUAGUCCAGGGAGUGGCGAAAGUCACACAAACCGG

The variants in the data set derive from B1. Kind of data set: reverse-splicing fitness (ratio to wild type); higher = more active; in vitro selection; Mg2+ level not given. The gist of the method: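 An in vitro group I ribozyme library with randomized positions was T7-transcribed and gel-purified. In triplicate, 10 pmol RNA in EPPS pH 7.5 was reacted with 50 pmoles of a 30-nt RNA substrate for 1 h at 37 °C across several added MgCl2 levels (1–48 mM), then stopped with EDTA. Products were reverse transcribed from a substrate-complementary primer, PCR-amplified and sequenced (HiSeq 4000). Fitness is a variant's read proportion after selection over that before, normalised to wild type.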
Consider C82A A111U A145G C150G C169U, for which the reverse-splicing fitness stood at 0.0101.

Consider C82A A111U A145G C150G C169A, for which the reverse-splicing fitness amounted to 0.0097.

Consider C82A A111U A145G C150G C169G, for which the reverse-splicing fitness was determined as 0.00774.

For the variant C82A A120C A145G C150A C169U U176A, the reverse-splicing fitness was 0.0177.

As for C82A A120C A145G C150A C169U U176C, the reverse-splicing fitness amounted to 0.0163.

Consider C82A A120C A145G C150A C169U U176G, for which the reverse-splicing fitness worked out at 0.00765.

Turning to C82A A120C A145G C169G U176C, the reverse-splicing fitness turned out to be 0.0316.

In the case of C82A A120C A145G C169G U176G, the reverse-splicing fitness was determined as 0.0041.

Take C82A A120C A145G C169G U176A: the reverse-splicing fitness was 0.0237.

Consider C82A A120C A145C C150U, for which the reverse-splicing fitness stood at 0.035.

Take C82A A120C A145C C150G: the reverse-splicing fitness is 0.0192.

Consider C82A A120C A145C C150A, for which the reverse-splicing fitness came to 0.0144.

On to C82A A120C A145C C150G C169U U176C, for which the reverse-splicing fitness worked out at 0.0105.

Consider C82A A120C A145C C150G C169U U176G, for which the reverse-splicing fitness was 0.00498.

C82A A120C A145C C150G C169U U176A: the reverse-splicing fitness came to 0.00681.

As for C82A A111U A145G C150G, the reverse-splicing fitness stood at 0.0263.

Turning to C82A A111U A145G C150U, the reverse-splicing fitness was determined as 0.222.

For the variant C82A A120C A145G C150U C169U U176A, the reverse-splicing fitness worked out at 0.0157.

As to C82A A120C A145G C150U C169U U176G, the reverse-splicing fitness was found to be 0.00621.

Turning to C82A A120C A145G C150U C169U U176C, the reverse-splicing fitness was found to be 0.0136.

Take C82A A111U A145G C150U C169U U176C: the reverse-splicing fitness is 0.0148.

In the case of C82A A111U A145G C150U C169U U176A, the reverse-splicing fitness came out at 0.0147.

For C82A A111U A145G C150U C169U U176G, the reverse-splicing fitness worked out at 0.00683.

Turning to C82A A120C A145U C150A U176C, the reverse-splicing fitness amounted to 0.0233.

With C82A A120C A145U C150A U176A, the reverse-splicing fitness turned out to be 0.0143.

Turning to C82A A120C A145U C150A U176G, the reverse-splicing fitness came out at 0.00574.

With C82A A111U C150U, the reverse-splicing fitness was determined as 0.135.

C82A A111U C150A: the reverse-splicing fitness worked out at 0.0266.

On to C82A A111U C150G, for which the reverse-splicing fitness worked out at 0.0198.

With C82A A111U C150A C169G U176G, the reverse-splicing fitness was 0.00794.

Regarding C82A A111U C150A C169G U176A, the reverse-splicing fitness came out at 0.0202.

On to C82A A111U C150A C169G U176C, for which the reverse-splicing fitness was determined as 0.0266.

Consider C82A A120C A145C, for which the reverse-splicing fitness amounted to 0.124.

For the variant C82A A120C A145U, the reverse-splicing fitness was 0.135.

For C82A A120C A145G, the reverse-splicing fitness turned out to be 0.136.

Turning to C82A A111U U176C, the reverse-splicing fitness amounted to 0.158.

Regarding C82A A111U U176A, the reverse-splicing fitness is 0.0911.

On to C82A A111U U176G, for which the reverse-splicing fitness amounted to 0.026.

As to C82A A111U A145G C150G C169U U176C, the reverse-splicing fitness turned out to be 0.0142.

Regarding C82A A111U A145G C150G C169U U176A, the reverse-splicing fitness came out at 0.0134.

As for C82A A111U A145G C150G C169U U176G, the reverse-splicing fitness was found to be 0.00787.

C82A A120C A145C C169U: the reverse-splicing fitness worked out at 0.0188.

Turning to C82A A120C A145C C169G, the reverse-splicing fitness worked out at 0.0102.

Take C82A A120C A145C C169A: the reverse-splicing fitness amounted to 0.00831.

On to C82A A111U A145U C150G C169G U176A, for which the reverse-splicing fitness stood at 0.00742.

As for C82A A111U A145U C150G C169G U176G, the reverse-splicing fitness worked out at 0.00651.

On to C82A A111U A145U C150G C169G U176C, for which the reverse-splicing fitness stood at 0.00625.

Regarding C82A A120C A145C C150U C169A, the reverse-splicing fitness came out at 0.00982.

Regarding C82A A120C A145C C150U C169U, the reverse-splicing fitness came out at 0.0118.

Regarding C82A A120C A145C C150U C169G, the reverse-splicing fitness was 0.00856.

In the case of C82A A111U C150G C169G U176C, the reverse-splicing fitness came to 0.00482.

In the case of C82A A111U C150G C169G U176A, the reverse-splicing fitness is 0.00782.

On to C82A A111U C150G C169G U176G, for which the reverse-splicing fitness was determined as 0.00641.

Turning to C82A A120C A145G C169A U176A, the reverse-splicing fitness is 0.0242.

In the case of C82A A120C A145G C169A U176C, the reverse-splicing fitness came out at 0.034.

With C82A A120C A145G C169A U176G, the reverse-splicing fitness was 0.00473.

As for C82A A120C A145C C150G C169G U176G, the reverse-splicing fitness amounted to 0.00575.

Turning to C82A A120C A145C C150G C169G U176C, the reverse-splicing fitness was determined as 0.00971.

Regarding C82A A120C A145C C150G C169G U176A, the reverse-splicing fitness amounted to 0.00969.

Take C82A A111U C150A C169A U176A: the reverse-splicing fitness turned out to be 0.0188.

For C82A A111U C150A C169A U176C, the reverse-splicing fitness stood at 0.0197.

For the variant C82A A111U C150A C169A U176G, the reverse-splicing fitness stood at 0.00811.

On to C82A A111U A145G C150U U176G, for which the reverse-splicing fitness stood at 0.0191.

With C82A A111U A145G C150U U176A, the reverse-splicing fitness was 0.0694.

Turning to C82A A111U A145G C150U U176C, the reverse-splicing fitness turned out to be 0.115.

In the case of C82A A120C A145U C150A C169U, the reverse-splicing fitness was found to be 0.00955.

As to C82A A120C A145U C150A C169A, the reverse-splicing fitness is 0.0105.

With C82A A120C A145U C150A C169G, the reverse-splicing fitness was 0.00904.

As to C82A A120C A145G C150G C169A U176A, the reverse-splicing fitness was found to be 0.0141.

Turning to C82A A120C A145G C150G C169A U176C, the reverse-splicing fitness is 0.0128.

Consider C82A A120C A145G C150G C169A U176G, for which the reverse-splicing fitness was 0.00933.

Regarding C82A A111U A145U, the reverse-splicing fitness amounted to 0.289.

As for C82A A111U A145U C150U C169G U176A, the reverse-splicing fitness was 0.0142.

As for C82A A111U A145U C150U C169G U176G, the reverse-splicing fitness amounted to 0.00663.

As to C82A A111U A145U C150U C169G U176C, the reverse-splicing fitness was determined as 0.0156.

Consider C82A A120C A145G C150G C169G U176A, for which the reverse-splicing fitness came out at 0.013.

For the variant C82A A120C A145G C150G C169G U176G, the reverse-splicing fitness is 0.00719.

As to C82A A120C A145G C150G C169G U176C, the reverse-splicing fitness turned out to be 0.0127.

C82A A111U A145G C169G U176A: the reverse-splicing fitness amounted to 0.023.

With C82A A111U A145G C169G U176G, the reverse-splicing fitness came out at 0.00674.

Consider C82A A111U A145G C169G U176C, for which the reverse-splicing fitness was 0.0304.

Regarding C82A A111U A145G C150U C169G U176G, the reverse-splicing fitness turned out to be 0.00676.

On to C82A A111U A145G C150U C169G U176C, for which the reverse-splicing fitness was 0.0194.
